# Experimental data as given in patent publication US20230136252A1 (NANJING LEGEND BIOTECH, published 2023).
# T1: recombinant human GPC2-His protein (human, UniProt Q8N158 24-554, limits assumed)
# T1 construct: Bought protein; The SPR paragraph gives no catalogue number for GPC2-His; also called recombinant Human Glypican 2 Protein; recombinant human GPC2 protein; not shown: His tag
# T1 sequence (looked up): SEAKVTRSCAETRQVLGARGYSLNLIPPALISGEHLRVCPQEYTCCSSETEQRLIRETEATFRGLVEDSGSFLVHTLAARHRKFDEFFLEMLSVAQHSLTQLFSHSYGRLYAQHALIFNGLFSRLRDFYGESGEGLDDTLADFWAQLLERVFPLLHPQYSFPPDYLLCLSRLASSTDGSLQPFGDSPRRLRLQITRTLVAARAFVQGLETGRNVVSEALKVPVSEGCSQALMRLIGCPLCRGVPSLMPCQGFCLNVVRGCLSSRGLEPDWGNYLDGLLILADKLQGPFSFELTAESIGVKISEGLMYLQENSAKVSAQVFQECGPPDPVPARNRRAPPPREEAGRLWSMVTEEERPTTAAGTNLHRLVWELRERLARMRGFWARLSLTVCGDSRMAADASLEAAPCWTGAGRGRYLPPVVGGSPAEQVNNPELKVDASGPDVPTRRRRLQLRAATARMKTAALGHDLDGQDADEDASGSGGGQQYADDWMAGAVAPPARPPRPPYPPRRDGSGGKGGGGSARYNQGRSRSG
# T2: cynomolgus monkey GPC2 on cells (HEK293T/cynoGPC2) (Cynomolgus monkey (Macaca fascicularis), UniProt A0A2K5X5G1 24-551)
# T2 construct: whole, on cells; also called Cynomolgus monkey (Macaca fascicularis) GPC2
# T2 sequence: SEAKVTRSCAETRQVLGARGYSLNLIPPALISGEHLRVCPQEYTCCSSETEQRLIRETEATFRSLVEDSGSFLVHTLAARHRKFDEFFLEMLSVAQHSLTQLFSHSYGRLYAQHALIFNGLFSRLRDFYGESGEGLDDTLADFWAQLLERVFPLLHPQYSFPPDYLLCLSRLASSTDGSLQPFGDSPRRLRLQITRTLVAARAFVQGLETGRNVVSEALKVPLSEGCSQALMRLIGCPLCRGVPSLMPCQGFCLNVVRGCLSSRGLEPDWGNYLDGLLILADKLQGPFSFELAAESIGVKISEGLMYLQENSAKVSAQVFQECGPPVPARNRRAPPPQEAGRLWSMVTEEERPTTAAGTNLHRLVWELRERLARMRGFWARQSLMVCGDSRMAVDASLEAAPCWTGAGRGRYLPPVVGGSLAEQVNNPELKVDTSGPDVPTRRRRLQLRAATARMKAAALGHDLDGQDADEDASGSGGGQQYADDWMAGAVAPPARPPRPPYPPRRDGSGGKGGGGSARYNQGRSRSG
# T3: human GPC2 on cells (SH-SY5Y, IMR-32, HEK293T/hGPC2) (human, UniProt Q8N158 24-554)
# T3 construct: whole, on cells; GPI-anchored proteoglycan on the cell surface; also called cell-surface human GPC2; GPC2 positive cells
# T3 sequence (looked up): T1 sequence (looked up)
# T4: recombinant human GPC4-Fc (human, UniProt O75487 19-529, limits assumed)
# T4 construct: Bought protein; also called RD System Cat #9195-GP; not shown: Fc
# T4 sequence (looked up): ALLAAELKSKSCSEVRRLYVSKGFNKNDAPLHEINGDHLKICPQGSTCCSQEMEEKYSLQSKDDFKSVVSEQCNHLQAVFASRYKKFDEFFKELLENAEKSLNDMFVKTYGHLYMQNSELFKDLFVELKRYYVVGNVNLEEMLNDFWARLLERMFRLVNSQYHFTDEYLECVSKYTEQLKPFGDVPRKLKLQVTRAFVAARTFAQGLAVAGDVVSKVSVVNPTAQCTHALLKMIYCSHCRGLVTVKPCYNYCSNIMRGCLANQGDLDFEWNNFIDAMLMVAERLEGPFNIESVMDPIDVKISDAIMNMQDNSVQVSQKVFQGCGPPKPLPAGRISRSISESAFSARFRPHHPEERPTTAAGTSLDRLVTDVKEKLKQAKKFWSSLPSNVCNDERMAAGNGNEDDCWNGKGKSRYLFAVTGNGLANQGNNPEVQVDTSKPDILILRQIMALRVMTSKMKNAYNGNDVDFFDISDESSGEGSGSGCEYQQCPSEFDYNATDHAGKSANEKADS
# B1: AS71529VH6-AS70950VH6-hIgG1Fc (Fc fusion)
# chain: EVQLVESGGGLVQPGGSLRLSCAVSEYRYSSRYCMGWFRQAPGKGREGVAAIDSNGSADYVDSVKGRFTISKDNSKNTLYLQMNSLRAEDTAMYYCAADHLAYDCYSGATSVFRYWGQGTLVTVSSGGGGSGGGGSGGGGSEVQLVESGGGLVQPGGSLRLSCAISEFTYKNTCVGWFRQAPGKGREGVAAIDSDGNTNYVDSVKGRFTISQDNSKNTVYLQMNSLRAEDTAMYYCAAGAYCGRLLLWIGNYAYWGQGTLVTVSS
# notes: Two different anti-GPC2 VHH domains in tandem, fused to a human IgG1Fc fragment; also called tandem anti-GPC2 VHH-hIgG1Fc; not shown: human IgG1 Fc fragment (hIgG1Fc)
# B2: AS71529VH6-hIgG1Fc (Fc fusion)
# chain: EVQLVESGGGLVQPGGSLRLSCAVSEYRYSSRYCMGWFRQAPGKGREGVAAIDSNGSADYVDSVKGRFTISKDNSKNTLYLQMNSLRAEDTAMYYCAADHLAYDCYSGATSVFRYWGQGTLVTVSS
# notes: also called anti-GPC2 VHH-hIgG1Fc; not shown: human IgG1 Fc fragment (hIgG1Fc)
# B3: AS72669VH6-hIgG1Fc (Fc fusion)
# chain: QVQLVESGGGVVQPGGSLRLSCAASRFTYSSYCMGWIRQAPGKGREGVAIFYTGGGRTYYADSVKGRFTISQDNSKNTLYLQMNSLRAEDTAVYYCVAGFYCSGGYWEGDFGYWGQGTLVTVSS
# notes: as for B2
# B4: AS70950VH6 anti-GPC2 VHH-His protein (VHH)
# VHH: EVQLVESGGGLVQPGGSLRLSCAISEFTYKNTCVGWFRQAPGKGREGVAAIDSDGNTNYVDSVKGRFTISQDNSKNTVYLQMNSLRAEDTAMYYCAAGAYCGRLLLWIGNYAYWGQGTLVTVSS
# B5: AS71529VH6-AS70950VH6 anti-GPC2 VHH-His protein (VHH)
# chain: EVQLVESGGGLVQPGGSLRLSCAVSEYRYSSRYCMGWFRQAPGKGREGVAAIDSNGSADYVDSVKGRFTISKDNSKNTLYLQMNSLRAEDTAMYYCAADHLAYDCYSGATSVFRYWGQGTLVTVSSGGGGSGGGGSGGGGSEVQLVESGGGLVQPGGSLRLSCAISEFTYKNTCVGWFRQAPGKGREGVAAIDSDGNTNYVDSVKGRFTISQDNSKNTVYLQMNSLRAEDTAMYYCAAGAYCGRLLLWIGNYAYWGQGTLVTVSSHHHHHH
# notes: Tandem of two different anti-GPC2 VHH domains
# B6: AS72669VH6 anti-GPC2 VHH-His protein (VHH)
# VHH: B3 chain
# B7: AS71529VH6 anti-GPC2 VHH-His protein (VHH)
# VHH: B2 chain
# B8: AS79236VH6 VHH-His recombinant antibody (VHH)
# VHH: EVQLVESGGGLVQPGGSLRLSCAVSGYTYSSYCMAWFRQAPGKGLEGVASIDAGGRTTYVDSVKGRFTISKDNAKNSLYLQMNSLRAEDTAMYYCAVDVRTRCGGTWDGEAVYFPYWGQGTLVTVSS
# notes: the result sentence still names the hIgG1Fc form
# B9: AS78117VH4 VHH-His recombinant antibody (VHH)
# VHH: EVQLVESGGGLVQPGGSLRLSCIVSRYTYATYSMAWFRQAPGKGLEGVSGLDSVGATGYAESVKGRFTISRDNSKNTLYLQMNSLRAEDTAVYYCVVDPASAKVTYGSWSTPSYAYWGQGTLVTVSS
# notes: as for B8
# Target: T1, recombinant human GPC2-His protein
# Assay: SPR, Biacore T200, GPC2-His amine-coupled to CM5 chip, VHH-hIgG1Fc as analyte, 1:1 model
# Method: Each of the exemplary anti-GPC2 VHH sequences was cloned into a vector comprising a human IgG1Fc fragment (hlgG1Fc) sequence to facilitate recombinant expression of anti-GPC2 VHH-hlgG1Fc. Recombinant proteins were obtained and purified for SPR assays. The affinity of each anti-GPC2 VHH-hIgG1Fc for GPC2 was determined by SPR using a BIACORE® T200 analytical system (GE Healthcare). Briefly, recombinant human GPC2-His protein was covalently coupled to a CM5(s) sensor chip using an amine coupling kit. Exemplary VHH-hIgG1Fc proteins were serially diluted in running buffer (10 mM HEPES, 150 mM NaCl, 3 mM EDTA, 0.05% Tween-20, pH 7.4) and injected over the chip cell at a flowrate of 100 μL/min for 100 seconds followed by buffer-only injection for 300 seconds to allow for antibody dissociation. The dissociation […] (KD) were determined using the BIACORE® T200 evaluation software version 3.0 (Langmuir binding, local fit, 1:1 binding model).
Binder,Kd [nM],koff [s⁻¹],kon [M⁻¹ s⁻¹]
B1,0.19,6.1e-05,320000
B2,5.1,0.0044,850000
B3,0.15,7.7e-05,520000

# Target: T2, cynomolgus monkey GPC2 on cells …
# Assay: flow cytometry on HEK293T/cynoGPC2 cells, VHH-His detected with anti-His tag antibody (iFluor 647), median fluorescence intensity, four-parameter fit
# Method: (§1) Binding affinities of humanized VHH proteins AS70950VH6, AS71529VH6, AS72669VH6 and AS71529VH6-AS70950VH6 anti-GPC2 VHH-HIS proteins to human GPC2 expressing cells (SH-SY5Y and HEK293T/hGPC2) and cynomolgus monkey GPC2 expressing cell (HEK293T/cynoGPC2) were determined using flow cytometry. Briefly, serially diluted anti-GPC2 VHH-HIS proteins were incubated with 2×10⁵ target cells at 4° C. for 30 mins. After washing, cells were further labelled with THE™ His tag Antibody (iFluor 647) (Genescript, #A01802) at 4° C. for 30 mins. Fluorescence intensity was measured by flow cytometry. A four parameters variable slope curve was fitted to each group using GraphPad Prism for Windows Version 6.02. As shown in FIG. 4A-FIG. 4C, exemplary AS70950VH6, AS71529VH6, AS72669VH6 and AS71529VH6-AS70950VH6 specifically bind to SH-SY5Y, HEK293T/hGPC2 and HEK293T/cynoGPC2 in a dose-dependent manner.
row,Binder,EC50 (read off the curve) [nM]
1,B4,~5
2,B5,~5
3,B6,~5

# Target: T3, human GPC2 on cells (SH-SY5Y, IMR-32, …)
# Assay: flow cytometry on HEK293T/hGPC2 cells, VHH-His detected with anti-His tag antibody (iFluor 647), median fluorescence intensity, four-parameter fit
# Method: as §1
row,Binder,EC50 (read off the curve) [nM]
1,B4,~2
2,B5,~5
3,B6,~4

# Target: T3, human GPC2 on cells (SH-SY5Y, IMR-32, …)
# Assay: flow cytometry on SH-SY5Y cells, VHH-His detected with anti-His tag antibody (iFluor 647), median fluorescence intensity, four-parameter fit
# Method: as §1
row,Binder,EC50 (read off the curve) [nM]
1,B4,~3
2,B5,~3
3,B7,~100
4,B6,~2

# Target: T4, recombinant human GPC4-Fc
# Assay: ELISA on GPC4 coated plate; by paragraph 266 the VHH-His form with anti-His tag secondary was used on GPC4-Fc; the sheet's title prints the hIgG1Fc form and its legend 'rhGPC4-his'
# Method: To evaluate the specificity of humanized anti-GPC2 VHH5 to recombinant human GPC2 protein, an ELISA-based binding assay was conducted to determine the differential target proteins binding of anti-GPC2 VHH5. Briefly, microplates were coated with 2 μg/mL recombinant human GPC1-His (RD System, Cat #4519-GP), GPC2-His (RD System, Cat #2304-GP), GPC3-His (ACRO, Cat #GP3-H5223), GPC4-Fc (RD System, Cat #9195-GP), GPC5-His (RD System, Cat #2607-G5/CF), GPC6-His (RD System, Cat #2845-GP) or recombinant mouse GPC2-His (RD System, Cat #2355-GP) proteins. Recombinant human protein coated plates were blocked with skim milk. Serially diluted humanized VHH-hIgG1Fc recombinant antibodies were added to each well of the plates and incubated at 4° C. for 1.5 h. Samples were further labelled with HRP-conjugated goat anti human IgG (H+L) secondary antibody (Genescript, Cat #A00166-1) and signal was developed with 3,3′,5,5′-Tetramethylbenzidine (TMB) substrate according to manufacturer's instruction. For the GPC4, VHH-His recombinant antibodies and anti-His tag secondary antibody (Genescript, Cat #A00612) were added to the GPC4-Fc coated plates instead. Optic density at 450 nm was measured by plate reader.
row,Binder,binding result
1,B4,no binding (tested: about 300 nM)
2,B8,no binding (tested: about 300 nM)
3,B9,no binding (tested: about 300 nM)
